Biological target: the molecule itself
Assay: mass photometry; Refeyn OneMP; CHIP at 50 nM final in 20 mM HEPES pH 8.0, 200 mM NaCl; self-association of CHIP (dimer, tetramer, hexamer, octamer, high MW)

| Protein | stoichiometry N | binding result |
| --- | --- | --- |
| CHIP R225*, recombinant (natural protein, human, UniProt Q9UNE7-1 1-303, looked up) MKGKEEKEGGARLGAGGGSPEKSPSAQELKEQGNRLFVGRKYPEAAACYGRAITRNPLVAVYYTNRALCYLKMQQHEQALADCRRALELDGQSVKAHFFLGQCQLEMESYDEAIANLQRAYSLAKEQRLNFGDDIPSALRIAKKKRWNSIEERRIHQESELHSYLSRLIAAERERELEECQRNHEGDEDDSHVRAQQACIEAKHDKYMADMDELFSQVDEKRKK | 2 | – |
| CHIP P228S, recombinant, C-terminal His tag (natural protein, human, UniProt Q9UNE7-1 1-303, looked up, CHIP (STUB1), SCA48-associated U-box mutation P228S) MKGKEEKEGGARLGAGGGSPEKSPSAQELKEQGNRLFVGRKYPEAAACYGRAITRNPLVAVYYTNRALCYLKMQQHEQALADCRRALELDGQSVKAHFFLGQCQLEMESYDEAIANLQRAYSLAKEQRLNFGDDIPSALRIAKKKRWNSIEERRIHQESELHSYLSRLIAAERERELEECQRNHEGDEDDSHVRAQQACIEAKHDKYMADMDELFSQVDEKRKKRDISDYLCGKISFELMREPCITPSGITYDRKDIEEHLQRVGHFDPVTRSPLTQEQLIPNLAMKEVIDAFISENGWVEDY | – | binds |
